Starred links: 1 amine or outer side, 2 acyl side, 3 side chain; linkers in the order of their positions; H or OH if unused. Non-standard residues stand in square brackets, D forms with d. *: point of attachment. Pipz(1-CH2CO,4-CH2CH2NH) = O=C(CN1CCN(CCN[*:1])CC1)[*:2]; C18 diacid = O=C(O)CCCCCCCCCCCCCCCCC(=O)*; γGlu = O=C(O)[C@H](CCC(=O)[*:2])N[*:1]; NMeL = CN[C@@H](CC(C)C)C(=O)O; hLys = NCCCCC[C@H](N)C(=O)O; Nle = CCCC[C@H](N)C(=O)O; Sar = CNCC(=O)O
T1: human neuromedin U receptor 1 (human, UniProt Q9HB89 24-426)
T1 sequence (looked up): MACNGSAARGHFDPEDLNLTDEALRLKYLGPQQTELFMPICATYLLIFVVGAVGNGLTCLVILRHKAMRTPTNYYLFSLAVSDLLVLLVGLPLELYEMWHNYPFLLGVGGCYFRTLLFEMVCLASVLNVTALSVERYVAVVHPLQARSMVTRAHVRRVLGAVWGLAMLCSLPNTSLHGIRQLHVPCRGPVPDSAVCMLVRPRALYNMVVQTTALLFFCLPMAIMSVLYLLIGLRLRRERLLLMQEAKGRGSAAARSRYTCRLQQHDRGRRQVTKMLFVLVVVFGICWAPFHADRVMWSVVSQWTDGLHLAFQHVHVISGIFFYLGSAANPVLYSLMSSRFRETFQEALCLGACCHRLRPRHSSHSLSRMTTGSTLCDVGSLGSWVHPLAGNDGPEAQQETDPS

B1: C20DA-gGlu3-Sar15-PipAc-Tyr-Phe-NMeLeu-Nle-Orn-Pro-Arg-Gly-NH2 (peptide)
peptide: EEEXXXXXXXXXXXXXXXXYFLXXPRG
HELM: PEPTIDE1{[O=C(O)CCCCCCCCCCCCCCCCCCC(=O)[*:2]].[gGlu].[gGlu].[gGlu].[Sar].[Sar].[Sar].[Sar].[Sar].[Sar].[Sar].[Sar].[Sar].[Sar].[Sar].[Sar].[Sar].[Sar].[Sar].[O=C(CN1CCN([*:1])CC1)[*:2]].Y.F.[meL].[Nle].[Orn].P.R.G.[am]}$$$$V2.0
SMILES: CCCC[C@H](NC(=O)[C@H](CC(C)C)N(C)C(=O)[C@H](Cc1ccccc1)NC(=O)[C@H](Cc1ccc(O)cc1)NC(=O)CN1CCN(C(=O)CN(C)C(=O)CN(C)C(=O)CN(C)C(=O)CN(C)C(=O)CN(C)C(=O)CN(C)C(=O)CN(C)C(=O)CN(C)C(=O)CN(C)C(=O)CN(C)C(=O)CN(C)C(=O)CN(C)C(=O)CN(C)C(=O)CN(C)C(=O)CN(C)C(=O)CC[C@H](NC(=O)CC[C@H](NC(=O)CC[C@H](NC(=O)CCCCCCCCCCCCCCCCCCC(=O)O)C(=O)O)C(=O)O)C(=O)O)CC1)C(=O)N[C@@H](CCCN)C(=O)N1CCC[C@H]1C(=O)N[C@@H](CCCNC(=N)N)C(=O)NCC(N)=O
B2: C18DA-gGlu3-Sar12-PipAc-Tyr-Phe-NMeLeu-Nle-Arg-Pro-Arg-Gly-NH2 (peptide)
peptide: EEEXXXXXXXXXXXXXYFLXRPRG
HELM: PEPTIDE1{[O=C(O)CCCCCCCCCCCCCCCCC(=O)[*:2]].[gGlu].[gGlu].[gGlu].[Sar].[Sar].[Sar].[Sar].[Sar].[Sar].[Sar].[Sar].[Sar].[Sar].[Sar].[Sar].[O=C(CN1CCN([*:1])CC1)[*:2]].Y.F.[meL].[Nle].R.P.R.G.[am]}$$$$V2.0
SMILES: CCCC[C@H](NC(=O)[C@H](CC(C)C)N(C)C(=O)[C@H](Cc1ccccc1)NC(=O)[C@H](Cc1ccc(O)cc1)NC(=O)CN1CCN(C(=O)CN(C)C(=O)CN(C)C(=O)CN(C)C(=O)CN(C)C(=O)CN(C)C(=O)CN(C)C(=O)CN(C)C(=O)CN(C)C(=O)CN(C)C(=O)CN(C)C(=O)CN(C)C(=O)CN(C)C(=O)CC[C@H](NC(=O)CC[C@H](NC(=O)CC[C@H](NC(=O)CCCCCCCCCCCCCCCCC(=O)O)C(=O)O)C(=O)O)C(=O)O)CC1)C(=O)N[C@@H](CCCNC(=N)N)C(=O)N1CCC[C@H]1C(=O)N[C@@H](CCCNC(=N)N)C(=O)NCC(N)=O
B3: C18DA-gGlu3-Sar9-AEPipAc-Tyr-Phe-NMeLeu-Nle-Arg-NMeAla-Arg-Gly-NH2 (peptide)
peptide: EEEXXXXXXXXXXYFLXRARG
HELM: PEPTIDE1{[O=C(O)CCCCCCCCCCCCCCCCC(=O)[*:2]].[gGlu].[gGlu].[gGlu].[Sar].[Sar].[Sar].[Sar].[Sar].[Sar].[Sar].[Sar].[Sar].[O=C(CN1CCN(CCN[*:1])CC1)[*:2]].Y.F.[meL].[Nle].R.[meA].R.G.[am]}$$$$V2.0
SMILES: CCCC[C@H](NC(=O)[C@H](CC(C)C)N(C)C(=O)[C@H](Cc1ccccc1)NC(=O)[C@H](Cc1ccc(O)cc1)NC(=O)CN1CCN(CCNC(=O)CN(C)C(=O)CN(C)C(=O)CN(C)C(=O)CN(C)C(=O)CN(C)C(=O)CN(C)C(=O)CN(C)C(=O)CN(C)C(=O)CN(C)C(=O)CC[C@H](NC(=O)CC[C@H](NC(=O)CC[C@H](NC(=O)CCCCCCCCCCCCCCCCC(=O)O)C(=O)O)C(=O)O)C(=O)O)CC1)C(=O)N[C@@H](CCCNC(=N)N)C(=O)N(C)[C@@H](C)C(=O)N[C@@H](CCCNC(=N)N)C(=O)NCC(N)=O
B4: C18DA-gGlu3-Sar15-PipAc-Tyr-Phe-NMeLeu-Nle-Dbu-NMeAla-Arg-Gly-NH2 (peptide)
peptide: EEEXXXXXXXXXXXXXXXXYFLXXARG
HELM: PEPTIDE1{[O=C(O)CCCCCCCCCCCCCCCCC(=O)[*:2]].[gGlu].[gGlu].[gGlu].[Sar].[Sar].[Sar].[Sar].[Sar].[Sar].[Sar].[Sar].[Sar].[Sar].[Sar].[Sar].[Sar].[Sar].[Sar].[O=C(CN1CCN([*:1])CC1)[*:2]].Y.F.[meL].[Nle].[Dab].[meA].R.G.[am]}$$$$V2.0
SMILES: CCCC[C@H](NC(=O)[C@H](CC(C)C)N(C)C(=O)[C@H](Cc1ccccc1)NC(=O)[C@H](Cc1ccc(O)cc1)NC(=O)CN1CCN(C(=O)CN(C)C(=O)CN(C)C(=O)CN(C)C(=O)CN(C)C(=O)CN(C)C(=O)CN(C)C(=O)CN(C)C(=O)CN(C)C(=O)CN(C)C(=O)CN(C)C(=O)CN(C)C(=O)CN(C)C(=O)CN(C)C(=O)CN(C)C(=O)CN(C)C(=O)CC[C@H](NC(=O)CC[C@H](NC(=O)CC[C@H](NC(=O)CCCCCCCCCCCCCCCCC(=O)O)C(=O)O)C(=O)O)C(=O)O)CC1)C(=O)N[C@@H](CCN)C(=O)N(C)[C@@H](C)C(=O)N[C@@H](CCCNC(=N)N)C(=O)NCC(N)=O
B5: C20DA-gGlu4-Sar12-AEPipAc-Tyr-Phe-NMeLeu-Nle-Orn-NMeAla-Arg-Gly-NH2 (peptide)
peptide: EEEEXXXXXXXXXXXXXYFLXXARG
HELM: PEPTIDE1{[O=C(O)CCCCCCCCCCCCCCCCCCC(=O)[*:2]].[gGlu].[gGlu].[gGlu].[gGlu].[Sar].[Sar].[Sar].[Sar].[Sar].[Sar].[Sar].[Sar].[Sar].[Sar].[Sar].[Sar].[O=C(CN1CCN(CCN[*:1])CC1)[*:2]].Y.F.[meL].[Nle].[Orn].[meA].R.G.[am]}$$$$V2.0
SMILES: CCCC[C@H](NC(=O)[C@H](CC(C)C)N(C)C(=O)[C@H](Cc1ccccc1)NC(=O)[C@H](Cc1ccc(O)cc1)NC(=O)CN1CCN(CCNC(=O)CN(C)C(=O)CN(C)C(=O)CN(C)C(=O)CN(C)C(=O)CN(C)C(=O)CN(C)C(=O)CN(C)C(=O)CN(C)C(=O)CN(C)C(=O)CN(C)C(=O)CN(C)C(=O)CN(C)C(=O)CC[C@H](NC(=O)CC[C@H](NC(=O)CC[C@H](NC(=O)CC[C@H](NC(=O)CCCCCCCCCCCCCCCCCCC(=O)O)C(=O)O)C(=O)O)C(=O)O)C(=O)O)CC1)C(=O)N[C@@H](CCCN)C(=O)N(C)[C@@H](C)C(=O)N[C@@H](CCCNC(=N)N)C(=O)NCC(N)=O
B6: C18DA-gGlu3-Sar15-PipAc-Tyr-Phe-NMeLeu-Nle-Arg-Pro-Arg-Gly-NH2 (peptide)
peptide: EEEXXXXXXXXXXXXXXXXYFLXRPRG
HELM: PEPTIDE1{[O=C(O)CCCCCCCCCCCCCCCCC(=O)[*:2]].[gGlu].[gGlu].[gGlu].[Sar].[Sar].[Sar].[Sar].[Sar].[Sar].[Sar].[Sar].[Sar].[Sar].[Sar].[Sar].[Sar].[Sar].[Sar].[O=C(CN1CCN([*:1])CC1)[*:2]].Y.F.[meL].[Nle].R.P.R.G.[am]}$$$$V2.0
SMILES: CCCC[C@H](NC(=O)[C@H](CC(C)C)N(C)C(=O)[C@H](Cc1ccccc1)NC(=O)[C@H](Cc1ccc(O)cc1)NC(=O)CN1CCN(C(=O)CN(C)C(=O)CN(C)C(=O)CN(C)C(=O)CN(C)C(=O)CN(C)C(=O)CN(C)C(=O)CN(C)C(=O)CN(C)C(=O)CN(C)C(=O)CN(C)C(=O)CN(C)C(=O)CN(C)C(=O)CN(C)C(=O)CN(C)C(=O)CN(C)C(=O)CC[C@H](NC(=O)CC[C@H](NC(=O)CC[C@H](NC(=O)CCCCCCCCCCCCCCCCC(=O)O)C(=O)O)C(=O)O)C(=O)O)CC1)C(=O)N[C@@H](CCCNC(=N)N)C(=O)N1CCC[C@H]1C(=O)N[C@@H](CCCNC(=N)N)C(=O)NCC(N)=O
B7: C20DA-gGlu3-Sar12-PipAc-Tyr-Phe-NMeLeu-Nle-Arg-Pro-Arg-Gly-NH2 (peptide)
peptide: EEEXXXXXXXXXXXXXYFLXRPRG
HELM: PEPTIDE1{[O=C(O)CCCCCCCCCCCCCCCCCCC(=O)[*:2]].[gGlu].[gGlu].[gGlu].[Sar].[Sar].[Sar].[Sar].[Sar].[Sar].[Sar].[Sar].[Sar].[Sar].[Sar].[Sar].[O=C(CN1CCN([*:1])CC1)[*:2]].Y.F.[meL].[Nle].R.P.R.G.[am]}$$$$V2.0
SMILES: CCCC[C@H](NC(=O)[C@H](CC(C)C)N(C)C(=O)[C@H](Cc1ccccc1)NC(=O)[C@H](Cc1ccc(O)cc1)NC(=O)CN1CCN(C(=O)CN(C)C(=O)CN(C)C(=O)CN(C)C(=O)CN(C)C(=O)CN(C)C(=O)CN(C)C(=O)CN(C)C(=O)CN(C)C(=O)CN(C)C(=O)CN(C)C(=O)CN(C)C(=O)CN(C)C(=O)CC[C@H](NC(=O)CC[C@H](NC(=O)CC[C@H](NC(=O)CCCCCCCCCCCCCCCCCCC(=O)O)C(=O)O)C(=O)O)C(=O)O)CC1)C(=O)N[C@@H](CCCNC(=N)N)C(=O)N1CCC[C@H]1C(=O)N[C@@H](CCCNC(=N)N)C(=O)NCC(N)=O
B8: C18DA-gGlu3-Sar9-AEPipAc-Tyr-Phe-NMeLeu-Nle-hLys-Pro-Arg-Gly-NH2 (peptide)
peptide: {C18 diacid}-[γGlu][γGlu][γGlu][Sar][Sar][Sar][Sar][Sar][Sar][Sar][Sar][Sar][Pipz(1-CH2CO,4-CH2CH2NH)]YF[NMeL][Nle][hLys]PRG-NH2
SMILES: CCCC[C@H](NC(=O)[C@H](CC(C)C)N(C)C(=O)[C@H](Cc1ccccc1)NC(=O)[C@H](Cc1ccc(O)cc1)NC(=O)CN1CCN(CCNC(=O)CN(C)C(=O)CN(C)C(=O)CN(C)C(=O)CN(C)C(=O)CN(C)C(=O)CN(C)C(=O)CN(C)C(=O)CN(C)C(=O)CN(C)C(=O)CC[C@H](NC(=O)CC[C@H](NC(=O)CC[C@H](NC(=O)CCCCCCCCCCCCCCCCC(=O)O)C(=O)O)C(=O)O)C(=O)O)CC1)C(=O)N[C@@H](CCCCCN)C(=O)N1CCC[C@H]1C(=O)N[C@@H](CCCNC(=N)N)C(=O)NCC(N)=O
B9: C18DA-gGlu3-Sar15-PipAc-Tyr-Phe-NMeLeu-Nle-Dbu-Pro-Arg-Gly-NH2 (peptide)
peptide: EEEXXXXXXXXXXXXXXXXYFLXXPRG
HELM: PEPTIDE1{[O=C(O)CCCCCCCCCCCCCCCCC(=O)[*:2]].[gGlu].[gGlu].[gGlu].[Sar].[Sar].[Sar].[Sar].[Sar].[Sar].[Sar].[Sar].[Sar].[Sar].[Sar].[Sar].[Sar].[Sar].[Sar].[O=C(CN1CCN([*:1])CC1)[*:2]].Y.F.[meL].[Nle].[Dab].P.R.G.[am]}$$$$V2.0
SMILES: CCCC[C@H](NC(=O)[C@H](CC(C)C)N(C)C(=O)[C@H](Cc1ccccc1)NC(=O)[C@H](Cc1ccc(O)cc1)NC(=O)CN1CCN(C(=O)CN(C)C(=O)CN(C)C(=O)CN(C)C(=O)CN(C)C(=O)CN(C)C(=O)CN(C)C(=O)CN(C)C(=O)CN(C)C(=O)CN(C)C(=O)CN(C)C(=O)CN(C)C(=O)CN(C)C(=O)CN(C)C(=O)CN(C)C(=O)CN(C)C(=O)CC[C@H](NC(=O)CC[C@H](NC(=O)CC[C@H](NC(=O)CCCCCCCCCCCCCCCCC(=O)O)C(=O)O)C(=O)O)C(=O)O)CC1)C(=O)N[C@@H](CCN)C(=O)N1CCC[C@H]1C(=O)N[C@@H](CCCNC(=N)N)C(=O)NCC(N)=O

The binders below were run against T1, human neuromedin U receptor 1 (assay: cell-based or functional assay).

| Binder | EC50 (hNMUR1) buffer |
| --- | --- |
| B1 | 470 nM |
| B2 | 110 nM |
| B3 | 540 nM |
| B4 | > 1000 nM |
| B5 | 1200 nM |
| B6 | 130 nM |
| B7 | 72 nM |
| B8 | 1400 nM |
| B9 | 1100 nM |

From patent US20240279278A1, “NMU RECEPTOR 2 AGONISTS” (Boehringer Ingelheim International GmbH, priority 2023, published 2024)
